Laboratory results: article PMC3313952, “Multicopper Oxidase-3 Is a Laccase Associated with the Peritrophic Matrix of Anopheles gambiae” (PLoS ONE, 2012)

Experiments:
Assay in all cases: spectrophotometric product formation, Michaelis-Menten fit
Assay type in all cases: biochemical, Anopheles gambiae
[1] = substrate: CC(=O)NCCc1ccc(O)c(O)c1; conditions: pH 7.5, 0.1 M sodium phosphate; pH 7.5
Text: (§1) spectrophotometric product formation, Michaelis-Menten fit on AgMCO3

[2] = substrate: CCn1c(=NN=c2sc3cc(S(=O)(=O)O)ccc3n2CC)sc2cc(S(=O)(=O)O)ccc21; conditions: pH 6.0, 0.1 M Mes; pH 6.0
Text: as §1

[3] = substrate: NCCC(=O)NCCc1ccc(O)c(O)c1; conditions: pH 7.0, 0.1 M sodium phosphate; pH 7.0
Text: as §1

[4] = substrate: NCCc1ccc(O)c(O)c1; conditions: pH 7.5, 0.1 M sodium phosphate; pH 7.5
Text: as §1

[5] = substrate: N[C@@H](Cc1ccc(O)c(O)c1)C(=O)O; conditions: pH 7.5, 0.1 M sodium phosphate; pH 7.5
Text: as §1

[6] = substrate: Oc1ccc(O)cc1; conditions: pH 6.5, 0.1 M Mes; pH 6.5
Text: as §1

[7] = substrate: Oc1ccccc1O; conditions: pH 7.0, 0.1 M sodium phosphate; pH 7.0
Text: as §1

B1: AgMCO3 (Anopheles gambiae) (protein)
chain: QSWLNTLLEQSNGTLDVSTFPGEQCLRECDNTQPRICHFSWTMEHYHVMGPACRDCAKGNHTDCYHPACITADGVERGVMSLNRKIPGPTISVCRHDLIVVDITNAMAGTSAAIHWHGLHQRATPYMDGVPFITQCPIGFGNTFRYAFLATEPGTQFYHSHSGHHKVNGHYGALIVREPKRVDPNGDLYHYDTPAHVILGSDWMHIDGEMFMPGLPSAGGIMPINLLINGKGTYHDPKKNETTQTPLEVYTVRRGARFRFRFINAASHVCPLQLQIEDHMMEVIASDSFHLQPRKVDTLVSTSGERYDFVLEANGVKDTYWVRLRSLGPCADLQLEQFAVLRYTTGPFINDAFPTGAPPTYEEPFRNVATANHPNATCGRPEFGDYCITDFQAYDTDEDVINGVPDHQLTFGFYNYPVSFESMFESNRYEHYMNIYGSVMMQGAINNISLAYPPFSLLTQPEKIRDDTFCDEDNRPDSCSDRQLCTCTHRVKINLGDIVELYILDLTPSVNDLNHPFHLHGYQMFVMEMSQDRRVPITLEIAQNIARQRLLSRNTVALPPRKDTVSIPSRGYARVRFRADNPGFWLMHCHYEWHTAVGMALVLQVGETSEMVKAPADFPKCDSYTPAVGHLLQGSL
notes: no tag mentioned; baculovirus / Sf9 host; cDNA identical to EF592176.2 except Leu instead of Pro at residue 15 in signal peptide (probable GenBank error)
Km [1]: 1000 µM
kcat [1]: 2.58 s⁻¹
kcat/Km [1]: 2580 M⁻¹ s⁻¹
Km [2]: 8500 µM
kcat [2]: 2.6 s⁻¹
kcat/Km [2]: 300 M⁻¹ s⁻¹
Km [3]: 2200 µM
kcat [3]: 11.8 s⁻¹
kcat/Km [3]: 5380 M⁻¹ s⁻¹
Km [4]: 1600 µM
kcat [4]: 4.57 s⁻¹
kcat/Km [4]: 2850 M⁻¹ s⁻¹
Km [5]: 1400 µM
kcat [5]: 1.55 s⁻¹
kcat/Km [5]: 1100 M⁻¹ s⁻¹
Km [6]: 5200 µM
kcat [6]: 26.2 s⁻¹
kcat/Km [6]: 5030 M⁻¹ s⁻¹
Km [7]: 2100 µM
kcat [7]: 5.1 s⁻¹
kcat/Km [7]: 2430 M⁻¹ s⁻¹
